The numbers were not newly measured in PMC10162908, which cites them from elsewhere.

This series concerns the target EED (Homo sapiens) (UniProt O75530).
Sequence of UniProt O75530 (O75530 2-441): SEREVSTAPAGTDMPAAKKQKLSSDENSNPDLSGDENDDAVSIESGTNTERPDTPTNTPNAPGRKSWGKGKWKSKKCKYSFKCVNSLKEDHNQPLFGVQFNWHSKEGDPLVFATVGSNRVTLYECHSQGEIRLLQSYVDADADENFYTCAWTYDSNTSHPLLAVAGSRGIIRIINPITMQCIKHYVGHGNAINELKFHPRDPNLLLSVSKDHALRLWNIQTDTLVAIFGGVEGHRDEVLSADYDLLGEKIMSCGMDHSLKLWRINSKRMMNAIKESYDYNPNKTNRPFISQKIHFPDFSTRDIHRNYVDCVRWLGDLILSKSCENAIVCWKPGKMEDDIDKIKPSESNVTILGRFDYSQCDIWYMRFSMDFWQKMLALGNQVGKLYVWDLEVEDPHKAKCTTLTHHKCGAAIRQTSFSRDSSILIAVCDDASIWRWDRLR

For orientation: Kd means the concentration at which binding is half-saturated. On to “Jarid2 K116me3 peptide 114-118 (from UniProt Q92833)”, for which the Kd is 8.82 µM.
